Measured values reported in patent US20180028658A1 (NEW YORK BLOOD CENTER, published 2018).

B1: vc-MMAE-NIH45-46 G54W (NYBC-HC-001) (antibody, V domains shown)
VH: QVRLSQSGGQMKKPGESMRLSCRASGYEFLNCPINWIRLAPGRRPEWMGWLKPRWGAVNYARKFQGRVTMTRDVYSDTAFLELRSLTSDDTAVYFCTRGKYCTARDYYNWDFEHWGRGAPVTVSS
VL: EIVLTQSPATLSLSPGETAIISCRTSQSGSLAWYQQRPGQAPRLVIYSGSTRAAGIPDRFSGSRWGADYNLSISNLESGDFGVYYCQQYEFFGQGTKVQVDI
modifications: MC-vc-PAB-MMAE linker payload on cysteines reduced with TCEP (sites and number not stated)
B2: NIH45-46 G54W (antibody, V domains shown)
VH: QVRLSQSGGQMKKPGESMRLSCRASGYEFLNCPINWIRLAPGRRPEWMGWLKPRWGAVNYARKFQGRVTMTRDVYSDTAFLELRSLTSDDTAVYFCTRGKYCTARDYYNWDFEHWGRGAPVTVSS
VL: EIVLTQSPATLSLSPGETAIISCRTSQSGSLAWYQQRPGQAPRLVIYSGSTRAAGIPDRFSGSRWGADYNLSISNLESGDFGVYYCQQYEFFGQGTKVQVDI
notes: Human IgG1; Obtained from the NIH AIDS Reagent Program and also made recombinantly (VH and VK genes in human b12 Igγ and Igκ backbone vectors, 293T cells); FITC-labelled in the uptake experiments; also called NIH45-45 G54W

What was measured:
[1] = target: T1, HIV-1 Env expressed on the surface of ACH-2 cells reactivated with TNF-α (HIV-1); test: cell-based or functional assay
[2] = target: T2, BG505 SOSIP.664 gp140 trimer (HIV-1 BG505); test: SPR (BIAcore)
T2 construct: domain: gp140; Provided by Dr. John P Moore; When cleaved, each protomer is a gp120 chain plus a gp41 ectodomain chain; also called BG505 SOSIP.646; cleavable version gp140 trimer

[3] = target: T3, full-length gp120 monomer (HIV-1 (Yu2 by the materials, not named …, UniProt P35961 32-498)); test: SPR (BIAcore); lower end of the stated KD range
T3 construct: domain: gp120; The tie to strain Yu2 is inferred from 'full-length Yu2 gp120 protein' in the materials. gp120IIIB and gp120BaL were also bought; General statements about 'gp120' are entered under this molecule; also called HIV-1 gp120 monomer; monomeric full-length gp120

[4] = target: T3, full-length gp120 monomer; test: ELISA on coated full-length gp120 monomer, OD at 405 nm, 1x PBS as blank
[5] = target: T2, BG505 SOSIP.664 gp140 trimer; test: SPR (BIAcore), Env protein immobilized on CM5 chip, antibody as analyte
[6] = target: HIV-1 gp41 (strain not stated) (HIV-1); test: as above
[7] = target: T3, full-length gp120 monomer; test: as above
[8] = target: T4, Recombinant gp41HXB2 (ecto-domain aa546 to 682) (HIV-1 HXB2, UniProt P04578 546-682); test: ELISA on coated gp41HXB2, OD at 405 nm
T4 construct: range 546-682; Bought from Aviva System Biology Corp; also called gp41 from HIV-1 HXB2 ecto-domain

[9] = target: T2, BG505 SOSIP.664 gp140 trimer; test: method not given
[10] = target: HIV-1 gp41 (strain not stated) (HIV-1); test: method not given
SF162 gp140 trimer = target: T5, SF162 gp140 trimer (HIV-1 SF162, UniProt P19550 32-675); test: ELISA on coated SF162 gp140 trimer, OD at 405 nm, 1x PBS as blank
T5 construct: domain: gp140; Obtained from the NIH AIDS Reagent Program; also called non-cleavable version of gp140 trimer (SF162); uncleaved SF162 gp140 trimer

[11] = target: T1, HIV-1 Env expressed on the surface of …; test: flow cytometry titration on activated ACH-2 cells, from 20 µg/ml in 1:3 dilutions, FITC second antibody
[12] = target: T2, BG505 SOSIP.664 gp140 trimer; test: ELISA on coated BG505 SOSIP.664 gp140 trimer, OD at 405 nm, 1x PBS as blank

Binder	EC50 of cell killing, […]-BLUE cell viability assay on activated ACH-2 latent cells [1] [µg/mL]	Kd [2] [nM]	Kd [3] [nM]	EC50 (read off the curve) [4] [µg/mL]	Kd [5] [nM]	koff [5] [s⁻¹]	kon [5] [M⁻¹ s⁻¹]	Kd [6] [nM]	koff [6] [s⁻¹]	kon [6] [M⁻¹ s⁻¹]	Kd [7] [nM]	koff [7] [s⁻¹]	binding result [8]	Kd [9] [nM]	Kd [10] [nM]	EC50 (read off the curve) (SF162 gp140 trimer) [µg/mL]	EC50 [11] [µg/mL]	EC50 (read off the curve) [12] [µg/mL]
B1	0.85	–	–	–	–	–	–	–	–	–	–	–	–	–	–	–	–	–
B2	–	0.23 to 0.29	0.11 to 0.17	~0.5	0.267	5.37e-06	20100	6.75	0.00461	683000	0.11	4.94e-06	binds	~0.1	~1	~0.2	5.2	~0.01
